This is an account of results in patent publication US20250025544A1.

The target in assay [1] is … (EBV LMP2A, epitope 2) presented by HLA-A*0201 (human; EBV). Nature of the assay: cell-based or functional assay.
Assay [2] addresses … (HCMV pp65, epitope 1) presented by HLA-A*0201 (human; HCMV). In words: cell-based or functional assay.
[3] abbreviates: scale: luciferase induction relative to uninfected controls.

With “TCR recognizing … presented by A*0201 (PDB #3REV), expressed on Jurkat-Lucia NFAT reporter T cells”, in assay [1], the in vitro T cell activation assay (luciferase), targeting short cassette A (luciferase induction) was 6.1; the in vitro T cell activation assay (luciferase), targeting short cassette B (luciferase induction) worked out at 6.3; the in vitro T cell activation assay (luciferase), targeting short cassette C (luciferase induction) worked out at 7.6; the in vitro T cell activation assay (luciferase), targeting short cassette D (luciferase induction) was 7. In assay [1], this substance yielded an in vitro T cell activation assay (luciferase), targeting short cassette E (luciferase induction) of 5.9; an in vitro T cell activation assay (luciferase), targeting short cassette F (luciferase induction) of 3.7; an in vitro T cell activation assay (luciferase), targeting short cassette G (luciferase induction) of 7.6; an in vitro T cell activation assay (luciferase), targeting short cassette H (luciferase induction) of 5.4. Besides, in assay [1], the in vitro T cell activation assay (luciferase), targeting short cassette I (luciferase induction) was 6.2; the in vitro T cell activation assay (luciferase), targeting short cassette J (luciferase induction) came to 6.4; the induction of luciferase, short cassette AAY (luciferase induction) is 11.3; the luciferase induction, short cassette 9AA came to 12. Besides, in assay [1], the luciferase induction, short cassette 17AA is 10.3; the luciferase induction, short cassette 25AA was 14.6; the luciferase induction, short cassette AAY amounted to 11.3; the luciferase induction, short cassette DPP amounted to 1.1. Further, the luciferase induction, short cassette RR in assay [1] came to 8.5.
Regarding “TCR recognizing … presented by A*0201 (PDB #5D2N), expressed on Jurkat-Lucia NFAT reporter T cells”, in assay [2], the in vitro T cell activation assay (luciferase), targeting short cassette A (luciferase induction) was 32.5; the in vitro T cell activation assay (luciferase), targeting short cassette B (luciferase induction) turned out to be 31.8; the in vitro T cell activation assay (luciferase), targeting short cassette C (luciferase induction) came out at 29.1; the in vitro T cell activation assay (luciferase), targeting short cassette D (luciferase induction) was 29.1. In assay [2], this substance returned an in vitro T cell activation assay (luciferase), targeting short cassette E (luciferase induction) of 28.4; an in vitro T cell activation assay (luciferase), targeting short cassette F (luciferase induction) of 20.4; an in vitro T cell activation assay (luciferase), targeting short cassette G (luciferase induction) of 35; an in vitro T cell activation assay (luciferase), targeting short cassette H (luciferase induction) of 30.3. In assay [2], this substance came in with an in vitro T cell activation assay (luciferase), targeting short cassette I (luciferase induction) of 22.5; an in vitro T cell activation assay (luciferase), targeting short cassette J (luciferase induction) of 38.1; an induction of luciferase, short cassette AAY (luciferase induction) of 24.5. Besides, in assay [2] (setting [3]), the luciferase induction, short cassette 9AA amounted to 33.6; the luciferase induction, short cassette 17AA came out at 42.8; the luciferase induction, short cassette 25AA was determined as 42.3; the luciferase induction, short cassette AAY was 24.5. In assay [2] (setting [3]), the luciferase induction, short cassette DPP is 0.9 and the luciferase induction, short cassette RR is 21.7.
